Measured values published in patent US20210122805A1 (Bristol-Myers Squibb, published 2021).

Experiments:
[1] = target: VEGFR2 fusion protein (extracellular domain of hVEGFR2 and intracellular domain of hEpoR) on Ba/F3 cells (human) (UniProt P35968); assay: cell-based or functional assay
human PCSK9 [2] = target: T1, human PCSK9 (human, UniProt Q8NBP7 31-692); assay: PCSK9:ATI-972 FRET competition assay, 5 nM human PCSK9; competitor biotinylated ATI-972
T1 construct: also called hPCSK9; recombinant human PCSK9
Source text: (§1) Two fluorescence resonance energy transfer (FRET) based assays were used to determine the competitive binding potency of PRD460 and other adnectins to hPCSK9. The PCSK9:EGFA FRET assay measures the binding of PCSK9 to the LDLR, using a soluble epidermal growth factor precursor homology domain-A (EGFA) peptide and recombinant human PCSK9.

human PCSK9 [3] = target: T1, human PCSK9; assay: PCSK9:EGFA FRET competition assay, 5 nM PCSK9; competitor EGFA peptide
Source text: as §1

human PCSK9 [4] = target: T1, human PCSK9; assay: SPR (Biacore), 10Fn3 protein or Fc fusion captured by anti-His or anti-human antibody, target in flow, 25 C, 1:1 fit
Procedure: (§2) The binding properties of Fc-¹⁰Fn3 fusion proteins and non-Fc ¹⁰Fn3 proteins were characterized by Surface Plasmon Resonance (SPR). Anti-human or anti-Histidine antibody was immobilized on a Biacore chip, and ¹⁰ Fn3 proteins and Fc-¹⁰Fn3 fusions were captured on the chip surface. Varying concentrations of target were placed into the flow solution using MgCl2 (3 M) for chip regeneration between cycles. Kinetic determinations were performed at 25° C. Evaluation of the kinetic parameters was performed using the 1:1 binding algorithm on the Biacore Evaluation software.

human PCSK9 [5] = target: T1, human PCSK9; assay: cell-based or functional assay
human PCSK9 [6] = target: T1, human PCSK9; assay: SPR (Biacore), ATI-1081 captured by anti-His antibody, hPCSK9 in flow, 25 C, 1:1 fit
Procedure: The binding characteristics were characterized by Surface Plasmon Resonance (SPR). […] Varying concentrations of hPCSK9 were placed into the flow solution using MgCl2 (3 M) for chip regeneration between cycles. […] Duplicate experiments for PRD460 were performed on different days. Kinetic determinations were performed at 25° C. Evaluation of the kinetic parameters was performed using the 1:1 Binding algorithm on the Biacore Evaluation software.

human PCSK9 [7] = target: T1, human PCSK9; assay: PCSK9:ATI-972 FRET assay, 5 nM human PCSK9; displaced competitor: biotinylated ATI-972
VEGFR2 = VEGFR2 (Homo sapiens (Human), UniProt P35968 20-764); assay: SPR (Biacore), 10Fn3 protein or Fc fusion captured by anti-His or anti-human antibody, target in flow, 25 C, 1:1 fit
Procedure: as §2

## CT322 (designed binder)
[1]
  IC50 (nM), Ba/F3 proliferation assay: 7.96 nM
  Relative Potency, Ba/F3 proliferation assay: 1

B1: ATI-1114 (designed binder)
chain: MGVSDVPRDLEVVAATPTSLLISWVPPSDDYGYYRITYGETGGNSPVQEFTVPIGKGTATISGLKPGVDYTITVYAVEFPWPHAGYYHRPISINYRTGSGCHHHHHH
modifications: pegylated (site and PEG size not stated)
Human PCSK9 [2]
  EC50: 0.8 nM

B2: ATI-1081 (designed binder)
chain: MGVSDVPRDLEVVAATPTSLLISWVPPSDDYGYYRITYGETGGNSPVQEFTVPIGKGTATISGLKPGVDYTITVYAVEFPWPHAGYYHRPISINYRTEIDKPSQHHHHHH
notes: No Fc
Human PCSK9 [3]
  EC50: 3.7 nM
Human PCSK9 [4]
  Kd: 6.7 nM
  koff: 0.000245 s⁻¹
  kon: 36500 M⁻¹ s⁻¹
Human PCSK9 [5]
  EC50 of inhibition of PCSK9-induced LDLR depletion from HepG2 cell surface (FACS): 9 nM
Human PCSK9 [6]
  Kd: 6.7 nM
  koff: 0.000245 s⁻¹
  kon: 36500 M⁻¹ s⁻¹
Human PCSK9 [2]
  EC50: 2.8 nM

B3: 1784F03 (designed binder, from a related filing)
chain: MGVSDVPRDLEVVAATPTSLLISWRPPIHAYGYYRITYGETGGNSPVQEFTVPIVEGTATISGLKPGVDYTITVYAVEYTFKHSGYYHRPISINYRTEIDKPSQHHHHHH
Human PCSK9 [4]
  Kd: 34.5 nM
  koff: 0.000396 s⁻¹
  kon: 11500 M⁻¹ s⁻¹
Human PCSK9 [5]
  IC50, HepG2 depletion inhibition: 13.2 nM

B4: 1813E02 (designed binder, from a related filing)
chain: MGVSDVPRDLEVVAATPTSLLISWSPPANGYGYYRITYGETGGNSPVQEFTVPVGRGTATISGLKPGVDYTITVYAVEYTYKGSGYYHRPISINYRTEIDKPSQHHHHHH
Human PCSK9 [4]
  Kd: 22.2 nM
  koff: 0.000388 s⁻¹
  kon: 17500 M⁻¹ s⁻¹
Human PCSK9 [5]
  IC50, HepG2 depletion inhibition: 10.6 nM

B5: ATI-1174 (designed binder)
chain: MGVSDVPRDLEVVAATPTSLLISWVPPSDDYGYYRITYGETGGNSPVQEFTVPIGKGTATISGLKPGVDYTITVYAVEFPWPHAGYYHRPISINYRTEIEKPCQ
modifications: pegylated (site and PEG size not stated)
notes: also called pegylated anti-PCSK9 Adnectin
Human PCSK9 [3]
  EC50: 1.9 nM
Human PCSK9 [7]
  IC50 (read off the curve): ~0.9 nM
Human PCSK9 [5]
  EC50 of inhibition of PCSK9-AF647 intracellular fluorescence in HepG2 cells: 10 nM
  EC50 of inhibition of PCSK9-induced LDLR depletion from HepG2 cell surface (FACS): 8 nM

B6: C7FL (designed binder)
chain: VSDVPRDLEVVAATPTSLLISWRHPHFPTRYYRITYGETGGNSPVQEFTVPLQPPTATISGLKPGVDYTITVYAVTDGRNGRLLSIPISINYRT
notes: No Fc; anti-VEGFR2 10Fn3; not shown: the N-terminal extension, C-terminal tail and His tag of the non-Fc C7FL protein, none of which is stated for it
VEGFR2
  Kd: 11.5 nM
  koff: 0.000236 s⁻¹
  kon: 20500 M⁻¹ s⁻¹
